For experiment [1], the system named is HEK293 cell membranes (c-Met system). Kind of experiment: 125I-Norleual binding assay, HEK293 cell membranes. Also on record: species or system human. Particulars: 1.5 nM HGF or 1 μM Norleual. As to the method:
FIG. 3C: ^125I-Norleual was bound to HEK membranes in the presence or absence of 1.5 nM HGF (n=8) or 1 μM Norleual (n=6). Total binding is reported as percent control (n=10), (*p<0.001). Error bars indicate±SD. […] Error bars indicate SD and data points were performed in duplicate.
^125I-Norleual binding assay. HEK293 cells were grown to confluency in DMEM fortified with 10% FBS. Media was aspirated and cells were washed twice with ice-cold PBS. Cells were lysed with hypotonic buffer and homogenized as described by Zhang et al. (1999, J. Pharmacol. Exp. Ther. 289: 1075-1083; 2003 J. Cell Biochem. 88: 408-417). 450 μg of membrane protein was incubated with 1.5 nM ^125I-Norleual with or without Norleual or HGF in a total volume of 250 μl PBS, 0.1% BSA. Tubes were spun and binding was carried out for 60 minutes at RT. Bound and free ligands were separated by vacuum filtration using (Brandel Cell Harvester, Schleicher & Schull, Keene, N.H., USA) 32 glass filters. Radioactivity retained by the filters was measured using a gamma counter. […] Data analysis was preformed using Prism software (GraphicPad) per the supplier's recommendations.
Materials and methods were as described in Example 1. In separate tests of unlabeled competitors, both Norleual and HGF competed with ^125I-HGF for high affinity binding to mouse liver plasma membranes (FIGS. 2A, 2B). […]

The subject of another experiment is B16-F0 murine melanoma. Put plainly: Primary tumor melanoma cancer model. Type of experiment: in vivo, C57BL/6 mice. The note with it: male C57 mice, Elvax pellet intramuscular, 21 μg/kg/day.
The next experiment addresses c-Met (Homo sapiens, UniProt P08581). Kind of experiment: Immunoprecipitation/Western blot of HGF-dependent c-Met and Gab1 phosphorylation and association in HEK293 cells. On the set-up: host or cells: HEK293. Type of experiment: cell-based. Here is the method:
(FIG. 5A) HEK293 cells were treated for 10 minutes with HGF at indicated concentrations. Lysates were immunoprecipitated (IP) with anti-c-Met antibody (DO-24) and immunoblotted (IB) with anti-c-Met or anti-phospho-tyrosine (06-427) antibody. (FIG. 5B) HEK293 cells were treated for 10 minutes with HGF and/or Norleual. Lysates were IP with anti-c-Met (DO-24) and IB with anti-c-Met (DQ-13) or anti-phospho-tyrosine (HAM 1676). (FIG. 5C) HEK293 lysates were IP with anti-c-Met (DO-24) and IB with anti-Gab1. (FIG. 5D) HEK 293 lysates were IP with anti-Gab1 and IB with anti-Gab1 or anti-phospho-tyrosine (HAM 1676). (FIGS. 5E, 5F, 5G) Relative amounts (normalized to % total c-Met in IP) of quantified IP/IB band intensities for control, 110 pM HGF-, 110 pM HGF and 20 pM Norleual-, and 20 pM Norleual-treated HEK293 cells for phospho-c-Met (FIG. 5E, n=4), phospho-Gab1 (FIG. 5F, n=4), and c-Met associated Gab1 (FIG. 5G, n=3). Error bars indicate ±SD.
HEK293 cells were treated for 10 minutes with HGF and/or Norleual at the indicated concentrations. Lysates were IP with anti-c-Met (DO-24, Millipore/Upstate, Billerica, Mass.) and IB with anti-c-Met (DQ-13, Millipore/Upstate) or anti-phosphotyrosine (HAM1676, lot JLB03, R&D Systems, Inc., Minneapolis, Minn.).
Immunoprecipitation and Western blotting. Cells were serum starved for two hours in DMEM before treatment. Cells were harvested using RIPA lysis buffer (Upstate Biotechnol. Inc., Lake Placid, N.Y.) with phosphatase inhibitor cocktails 1 and 2 (Sigma, St Louis, Mo., USA). Protein concentration was determined using the BCA assay (Pierce, Rockford, Ill., USA). Lysates were incubated with antibody overnight at 4° C. Immunoprecipitation controls received mouse non-specific Ig (Upstate). Proteins were captured with protein-A agarose (Upstate) and were washed with PBS. Proteins were resolved using SDS-PAGE electrophoresis (Criterion, BioRad, Hercules, Calif., USA), transferred to nitrocellulose, and incubated with appropriate antibodies. Proteins were visualized using the Supersignal West Pico Chemiluminescent Substrate system (Pierce). The film images were digitized and analyzed using TotalLab® software (AmershamPharmacia/GE HealthCare, Piscataway, N.J.).
Whether the interaction of Norleual with the c-Met receptor had functional consequences regarding c-Met signaling was next investigated by determining whether Norleual could alter the phosphorylation status of cellular protein tyrosine phosphate (FIG. 4) and more specifically, of c-Met (i.e., c-Met activation), and also whether Norleual could modulate Gab1 association with c-Met. Human embryonic kidney HEK293 cells were activated by HGF in the presence or absence of Norleual. Solubilized membranes were immunoprecipitated (IP) with an anti-c-Met antibody and immunoblotted (IB) for total c-Met, anti-phospho-tyrosine to detect the activated form of c-Met, and anti-Gab1 to detect c-Met/Gab1 association. […] To confirm these findings, treated HEK293 lysates were precipitated with anti-Gab1 and blotted for total Gab1 and phospho-Gab1, its activated form. Again, Norleual inhibited HGF-induced Gab1 phosphorylation (FIGS. 5D, […]).

The values below come from patent US8236761B2, “C-Met receptor regulation by angiotensin IV (AT4) receptor ligands” (Washington State University Research Foundation, priority 2006, dated 2012).

Non-standard residues stand in square brackets, D forms with d. No end group written: not given here. Nle = CCCC[C@H](N)C(=O)O

Sequence of c-Met (P08581 308-1390 limits assumed): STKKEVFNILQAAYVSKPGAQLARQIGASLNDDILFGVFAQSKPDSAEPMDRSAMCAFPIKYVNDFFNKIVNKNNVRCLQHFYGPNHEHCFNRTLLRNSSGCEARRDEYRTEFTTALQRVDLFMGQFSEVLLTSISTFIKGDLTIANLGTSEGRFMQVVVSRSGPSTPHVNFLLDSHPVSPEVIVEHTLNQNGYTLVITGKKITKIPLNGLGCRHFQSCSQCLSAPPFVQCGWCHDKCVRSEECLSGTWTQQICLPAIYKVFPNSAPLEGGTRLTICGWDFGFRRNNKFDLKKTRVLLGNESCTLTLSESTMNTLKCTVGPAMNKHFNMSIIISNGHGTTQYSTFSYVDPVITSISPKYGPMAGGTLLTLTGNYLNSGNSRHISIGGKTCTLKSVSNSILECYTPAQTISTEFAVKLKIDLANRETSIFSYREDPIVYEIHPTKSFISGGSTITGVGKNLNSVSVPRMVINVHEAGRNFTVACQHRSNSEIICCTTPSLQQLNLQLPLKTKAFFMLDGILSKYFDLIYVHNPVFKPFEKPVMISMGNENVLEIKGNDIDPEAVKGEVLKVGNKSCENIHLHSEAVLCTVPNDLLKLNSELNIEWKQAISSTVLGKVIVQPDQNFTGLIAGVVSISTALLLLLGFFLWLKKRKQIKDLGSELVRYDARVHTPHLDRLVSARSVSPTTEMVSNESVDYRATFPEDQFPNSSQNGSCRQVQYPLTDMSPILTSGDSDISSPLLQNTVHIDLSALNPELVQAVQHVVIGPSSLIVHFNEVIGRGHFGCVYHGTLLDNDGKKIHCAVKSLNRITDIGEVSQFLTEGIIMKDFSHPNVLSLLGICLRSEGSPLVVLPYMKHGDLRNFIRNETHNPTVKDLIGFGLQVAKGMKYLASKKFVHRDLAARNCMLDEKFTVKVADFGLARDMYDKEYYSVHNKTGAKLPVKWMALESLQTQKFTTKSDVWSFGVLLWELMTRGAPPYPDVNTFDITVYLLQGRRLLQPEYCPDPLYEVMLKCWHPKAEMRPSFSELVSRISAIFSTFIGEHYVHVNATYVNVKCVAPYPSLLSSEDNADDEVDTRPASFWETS
Sequence of c-Met (P08581 25-307 limits assumed): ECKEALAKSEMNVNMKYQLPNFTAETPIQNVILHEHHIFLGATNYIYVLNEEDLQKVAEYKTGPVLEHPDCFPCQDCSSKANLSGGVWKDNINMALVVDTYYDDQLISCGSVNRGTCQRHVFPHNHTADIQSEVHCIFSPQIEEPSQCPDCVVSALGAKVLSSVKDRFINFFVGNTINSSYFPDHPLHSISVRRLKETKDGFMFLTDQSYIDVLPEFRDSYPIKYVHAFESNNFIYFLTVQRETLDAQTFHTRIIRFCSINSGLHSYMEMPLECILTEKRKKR

For “Nle-Tyr-Leu-ψ-His-Pro-Phe ([Nle]YLHPF; also: reduced peptide bond psi(CH2NH2) between Leu and His) [Norleual]”, the “Competition for 125I-Norleual specific binding to HEK293 cell membranes” value in experiment [1] is listed as “competed”. The “Primary B16-F0 murine melanoma growth” value in the experiment with B16-F0 murine melanoma is “inhibited”. Also, in the experiment with c-Met (HEK293 cells), the “HGF-initiated association between Gab1 and c-Met” value is “significantly reduced”. Also, in the experiment with c-Met (HEK293 cells, 10 minutes, no HGF), the “c-Met phosphorylation, compound applied alone” value is listed as “did not alter”. In addition, the “HGF-dependent Gab1 phosphorylation (IP anti-c-Met)” value with c-Met (HEK293 cells, Norleual 20 pM, 110 pM HGF) is “significantly reduced”. Also, the “HGF-dependent c-Met phosphorylation” value in the experiment with c-Met (HEK293 cells, Norleual 20 pM, 110 pM HGF, 10 minutes) was “significantly reduced”. Moreover, the “HGF-induced Gab1 phosphorylation (IP anti-Gab1)” value with c-Met (HEK293 lysates precipitated with anti-Gab1) was “inhibited”.
